From publication PMC11927390 (2025)
Changes are numbered by the printed parent chain.

B1: human ULBP1 (ligand)
chain: GWVDTHCLCYDFIITPKSRPEPQWCEVQGLVDERPFLHYDCVNHKAKAFASLGKKVNVTKTWEEQTETLRDVVDFLKGQLLDIQVENLIPIEPLTLQARMSCEHEAHGHGRGSWQFLFNGQKFLLFDSNNRKWTALHPGAKKMTEKWEKNRDVTMFFQKISLGDCKMWLEEFLMYWEQMLDPTKPPSLAPG
B2: human ULBP6-02 extracellular domain (residues R26-G218) (ligand)
chain: RRDDPHSLCYDITVIPKFRPGPRWCAVQGQVDEKTFLHYDCGNKTVTPVSPLGKKLNVTMAWKAQNPVLREVVDILTEQLLDIQLENYTPKEPLTLQARMSCEQKAEGHSSGSWQFSIDGQTFLLFDSEKRMWTTVHPGARKMKEKWENDKDVAMSFHYISMGDCIGWLEDFLMGMDSTLEPSAGAPLAMSSG
modifications: glycosylation of residues N68 and N82 (in the crystal structure)
B3: human ULBP2 (ligand)
chain: GRADPHSLCYDITVIPKFRPGPRWCAVQGQVDEKTFLHYDCGNKTVTPVSPLGKKLNVTTAWKAQNPVLREVVDILTEQLRDIQLENYTPKEPLTLQARMSCEQKAEGHSSGSWQFSFDGQIFLLFDSEKRMWTTVHPGARKMKEKWENDKVVAMSFHYFSMGDCIGWLEDFLMGMDSTLEPSAGAPLAMSS
B4: human ULBP3 (ligand)
chain: DAHSLWYNFTIIHLPRHGQQWCEVQSQVDQKNFLSYDCGSDKVLSMGHLEEQLYATDAWGKQLEMLREVGQRLRLELADTELEDFTPSGPLTLQVRMSCECEADGYIRGSWQFSFDGRKFLLFDSNNRKWTVVHAGARRMKEKWEKDSGLTTFFKMVSMRDCKSWLRDFLMHRKKRLEPTAPPTMAPG
B5: human MICA (MHC class I polypeptide-related sequence A), soluble recombinant (ligand)
chain: EPHSLRYNLTVLSWDGSVQSGFLTEVHLDGQPFLRCDRQKCRAKPQGQWAEDVLGNKTWDRETRDLTGNGKDLRMTLAHIKDQKEGLHSLQEIRVCEIHEDNSTRSSQHFYYDGELFLSQNLETKEWTMPQSSRAQTLAMNVRNFLKEDAMKTKTHYHAMHADCLQELRRYLKSGVVLRRTVPPMVNVTRSEASEGNITVTCRASGFYPWNITLSWRQDGVSLSHDTQQWGDVLPDGNGTYQTWVATRICQGEEQRFTCYMEHSGNHSTHPVPSGKVLVLQSHW
B6: human ULBP6-01 (residues G26-G218) (ligand)
chain: B2 chain with R1G, M60T, L81R, T122I
B7: human ULBP5 (ligand)
chain: GLADPHSLCYDITVIPKFRPGPRWCAVQGQVDEKTFLHYDCGSKTVTPVSPLGKKLNVTTAWKAQNPVLREVVDILTEQLLDIQLENYIPKEPLTLQARMSCEQKAEGHGSGSWQLSFDGQIFLLFDSENRMWTTVHPGARKMKEKWENDKDMTMSFHYISMGDCTGWLEDFLMGMDSTLEPSAGAPPTMSSG
B8: Fc-tagged human NKG2D (Fc fusion)
chain: IWSAVFLNSLFNQEVQIPLTESYCGPCPKNWICYKNNCYQFFDESKNWYESQASCMSQNASLLKVYSKEDQDLLKLVKSYHWMGLVHIPTNGSWQWEDGSILSPNLLTIIEMQKGDCALYASSFKGYIENCSTPNTYICMQRTV

Target: B8
Assay: SPR

First: B1
Second: B2
The Kd of the first is 51-fold higher: 138 nM for the first, 2.69 nM for the second. The second binds more tightly here.

First: B3
Second: B4
The Kd of the first is 3.2-fold lower: 262 nM for the first, 836 nM for the second.

First: B5
Second: B6
The Kd of the first is 1.9-fold higher: 83.2 nM for the first, 42.7 nM for the second. The second binds more tightly here.

For B7, the Kd was 93.4 nM.

The binders below were run against MICB (assay: SPR).

Binder B8 has a Kd of 105 nM.
